According to patent publication US20230235027A1:

Assays:
N501Y (SARS-CoV-2) = experiment: kinetic measurement, method not stated; table row N501Y
A475V (SARS-CoV-2) = experiment: kinetic measurement, method not stated; table row A475V
F490L (SARS-CoV-2) = experiment: kinetic measurement, method not stated; table row F490L
E484K (SARS-CoV-2) = experiment: kinetic measurement, method not stated; table row E484K
N439K (SARS-CoV-2) = experiment: kinetic measurement, method not stated; table row N439K
K417N (SARS-CoV-2) = experiment: kinetic measurement, method not stated; table row K417N
L452R (SARS-CoV-2) = experiment: kinetic measurement, method not stated; table row L452R
B.1.351 (Gamma) = experiment: kinetic measurement, method not stated; table row B.1.351 (Gamma)

Sequence of NIH-CoVnb-112 (VHH) (VHH): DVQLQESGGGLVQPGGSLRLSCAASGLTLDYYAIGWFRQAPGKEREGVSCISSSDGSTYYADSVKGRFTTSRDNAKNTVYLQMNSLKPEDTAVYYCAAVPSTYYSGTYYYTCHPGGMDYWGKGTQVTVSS

Substance NIH-CoVnb-112 (VHH) has a koff (N501Y (SARS-CoV-2)) of 0.000428 s⁻¹, a kon (N501Y (SARS-CoV-2)) of 153000 M⁻¹ s⁻¹ and a koff (A475V (SARS-CoV-2)) of 0.000209 s⁻¹. For the same substance, the kon (A475V (SARS-CoV-2)) was 169000 M⁻¹ s⁻¹, the koff (F490L (SARS-CoV-2)) was 0.000926 s⁻¹ and the kon (F490L (SARS-CoV-2)) was 158000 M⁻¹ s⁻¹. For the same substance, the koff (E484K (SARS-CoV-2)) was 0.000304 s⁻¹, the kon (E484K (SARS-CoV-2)) was 256000 M⁻¹ s⁻¹ and the koff (N439K (SARS-CoV-2)) was 0.000302 s⁻¹. It also gave a kon (N439K (SARS-CoV-2)) of 189000 M⁻¹ s⁻¹, a koff (K417N (SARS-CoV-2)) of 0.000157 s⁻¹ and a kon (K417N (SARS-CoV-2)) of 120000 M⁻¹ s⁻¹. It also gave a koff (L452R (SARS-CoV-2)) of 0.00127 s⁻¹, a kon (L452R (SARS-CoV-2)) of 209000 M⁻¹ s⁻¹ and a koff (B.1.351 (Gamma)) of 0.000705 s⁻¹. The kon (B.1.351 (Gamma)) was 201000 M⁻¹ s⁻¹.
